Test results as given in patent US20240252614A1 (Pfizer, published 2024).

Tests used:
[1] = biological target: F protein of hMPV A virus (human metapneumovirus A); experiment: cell-based or functional assay
[2] = biological target: F protein of hMPV B virus (human metapneumovirus B); experiment: cell-based or functional assay
[3] = biological target: T1, stabilized hMPV F protein trimer in pre-fusion conformation (human metapneumovirus); experiment: ELISA, F protein coated
T1 construct: also called preF-hMPV; hMPV pre-fusion F protein
Description: (§1) Briefly, 96-well microtiter plates were coated with 100 μL/well of individual F protein at 2 μg/mL, and then incubated at 4° C. overnight. After washing with 0.01M TBS/0.1% Brij-35, the plates were blocked with 5% non-fat milk for 1 hr at RT. […] After 3 washes with 0.01M TBS/0.1% Brij-35, 100 μL/well of secondary antibody (HRP-anti-human Fc) in a 1:3000 dilution was added to the plates and incubated for 1 hr RT. After 3 washes with 0.01M TBS/0.1% Brij-35, 100 μL/well of TMB-ELISA Substrate Solution was added to the plates. The reaction was stopped with addition of 100 μL/well of 2N H2SO4 after 2 minutes. The plates were then read on a SpectraMax microplate reader with SoftMax Pro software at OD 450 nm (Molecular Devices). The data was analyzed with Graphpad Prism software.

hMPV066 = biological target: T2, hMPV066 (hMPV A, UniProt Q6WB98 19-102); experiment: BLI, 50C stress
T2 construct: T49I
Description: (§2) The OCTET HTX (Sartorius, Gottingen, Germany) instrument was used to evaluate the expression and conformational integrity for each mutant. All measurements were conducted at 30° C. temperature in 96-well black plates (Corning, Corning, NY) with a final volume of 240 μL per well at a constant agitation rate of 1000 RPM.
(§3) Conformation integrity of hMPV A F protein mutants were evaluated by thermal stress experiments. Crude cell culture supernatants were normalized based on the results of the titer quantitation and then incubated for 1 hour at room temperature and two higher temperatures. […] Anti-Human IgG Fc Capture (AHC) biosensors were first equilibrated in PB before being dipped into more PB to establish the initial baseline. […] The mAb-bound biosensors were then dipped into the thermal stressed cell culture supernatants for 5 minutes. The kinetics analysis was done by OCTET data analysis software (version 12.0, Sartorius) based on curve fitting of the entire associate step.

hMPV046 = biological target: T3, hMPV046 (hMPV A, UniProt Q6WB98 19-102); experiment: BLI, 50C stress
T3 construct: A140C-S149C
Description: as §2, §3

hMPV052 = biological target: T4, hMPV052 (hMPV A, UniProt Q6WB98 19-102); experiment: BLI, 50C stress
T4 construct: L66P
Description: as §2, §3

hMPV060 = biological target: T5, hMPV060 (hMPV A, UniProt Q6WB98 19-102); experiment: BLI, 50C stress
T5 construct: A459P
Description: as §2, §3

hMPV062 = biological target: T6, hMPV062 (hMPV A, UniProt Q6WB98 19-102); experiment: BLI, 50C stress
T6 construct: G121A
Description: as §2, §3

hMPV053 = biological target: T7, hMPV053 (hMPV A, UniProt Q6WB98 19-102); experiment: BLI, 50C stress
T7 construct: L110P
Description: as §2, §3

hMPV075 = biological target: T8, hMPV075 (hMPV A, UniProt Q6WB98 19-102); experiment: BLI, 50C stress
T8 construct: L473F
Description: as §2, §3

hMPV058 = biological target: T9, hMPV058 (hMPV A, UniProt Q6WB98 19-102); experiment: BLI, 50C stress
T9 construct: L187P
Description: as §2, §3

hMPV071 = biological target: T10, hMPV071 (hMPV A, UniProt Q6WB98 19-102); experiment: BLI, 50C stress
T10 construct: T365I
Description: as §2, §3

hMPV067 = biological target: T11, hMPV067 (hMPV A, UniProt Q6WB98 19-102); experiment: BLI, 50C stress
T11 construct: S149T
Description: as §2, §3

hMPV045 = biological target: T12, hMPV045 (hMPV A, UniProt Q6WB98 19-102); experiment: BLI, 50C stress
T12 construct: I137C-A159C
Description: as §2, §3

hMPV054 = biological target: T13, hMPV054 (hMPV A, UniProt Q6WB98 19-102); experiment: BLI, 50C stress
T13 construct: S132P
Description: as §2, §3

hMPV068 = biological target: T14, hMPV068 (hMPV A, UniProt Q6WB98 19-102); experiment: BLI, 50C stress
T14 construct: A159V
Description: as §2, §3

hMPV044 = biological target: T15, hMPV044 (hMPV A, UniProt Q6WB98 19-102); experiment: BLI, 50C stress
T15 construct: T411C-Q434C
Description: as §2, §3

hMPV049 = biological target: T16, hMPV049 (hMPV A, UniProt Q6WB98 19-102); experiment: BLI, 50C stress
T16 construct: E146C-T160C
Description: as §2, §3

hMPV048 = biological target: T17, hMPV048 (hMPV A, UniProt Q6WB98 19-102); experiment: BLI, 50C stress
T17 construct: L141C-A161C
Description: as §2, §3

hMPV077 = biological target: T18, hMPV077 (hMPV A, UniProt Q6WB98 19-102); experiment: BLI, 50C stress
T18 construct: Q476C, S477C
Description: as §2, §3

hMPV061 = biological target: T19, hMPV061 (hMPV A, UniProt Q6WB98 19-102); experiment: BLI, 50C stress
T19 construct: G106A
Description: as §2, §3

hMPV047 = biological target: T20, hMPV047 (hMPV A, UniProt Q6WB98 19-102); experiment: BLI, 50C stress
T20 construct: L141C-A159C
Description: as §2, §3

hMPV A F WT Control = hMPV A F WT Control (hMPV A, UniProt Q6WB98 19-102); experiment: BLI, 50C stress
Description: as §2, §3

hMPV043 = biological target: T21, hMPV043 (hMPV A, UniProt Q6WB98 19-102); experiment: BLI, 50C stress
T21 construct: G366C-D454C
Description: as §2, §3

hMPV059 = biological target: T22, hMPV059 (hMPV A, UniProt Q6WB98 19-102); experiment: BLI, 50C stress
T22 construct: V449P
Description: as §2, §3

hMPV055 = biological target: T23, hMPV055 (hMPV A, UniProt Q6WB98 19-102); experiment: BLI, 50C stress
T23 construct: N145P
Description: as §2, §3

hMPV063 = biological target: T24, hMPV063 (hMPV A, UniProt Q6WB98 19-102); experiment: BLI, 50C stress
T24 construct: G239A
Description: as §2, §3

hMPV050 = biological target: T25, hMPV050 (hMPV A, UniProt Q6WB98 19-102); experiment: BLI, 50C stress
T25 construct: V148C-L158C
Description: as §2, §3

hMPV069 = biological target: T26, hMPV069 (hMPV A, UniProt Q6WB98 19-102); experiment: BLI, 50C stress
T26 construct: S291I
Description: as §2, §3

PIV1054 = biological target: T27, PIV1054 (PIV1); experiment: BLI, 53C stress;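 further: binding of thermally stressed PIV1 F mutant supernatant to mAb on AHC biosensors for 5 min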
T27 construct: A466L, S473L, A480L, G134A
Description: as §2
(§4) Conformation integrity of PIV1 F protein mutants were evaluated by a thermal stress experiment. Crude cell culture supernatants were normalized based on the results of the titer quantitation and then incubated for 1 hour at room temperature and two higher temperatures. For the initial testing of PIV1 mutants, the two temperatures were 50° C. and 53° C. […] Anti-Human IgG Fc Capture (AHC) biosensors were first equilibrated in PB for before being dipped into more PB to establish the initial baseline. […] The mAb-bound biosensors were then dipped into the thermal stresses cell culture supernatants for 5 minutes.

F protein of hPIV1 virus = F protein of hPIV1 virus (human parainfluenza virus 1); experiment: cell-based or functional assay
[4] = biological target: T28, PIV1 F literature prefusion comparison (PIV1); experiment: BLI, 53C stress;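 further: binding of thermally stressed PIV1 F mutant supernatant to mAb on AHC biosensors for 5 min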
T28 construct: F113G, F114S, A466I, S473I (Stewart-Jones et al. 2018)
Description: as §2, §4

PIV1070 [5] = biological target: T29, PIV1070 (PIV1); experiment: BLI, 53C stress;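 further: binding of thermally stressed PIV1 F mutant supernatant to mAb on AHC biosensors for 5 min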
T29 construct: F113G, F114S, A466I, S473I, G134A
Description: as §2, §4

[6] = biological target: T30, stabilized hPIV1 F protein trimer in pre-fusion conformation (human parainfluenza virus 1); experiment: ELISA, F protein coated
T30 construct: also called preF-hPIV1; HPIV1 pre-fusion F protein
Description: as §1

[7] = biological target: T28, PIV1 F literature prefusion comparison; experiment: BLI, 56C stress;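 further: binding of thermally stressed PIV1 F mutant supernatant to mAb on AHC biosensors for 5 min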
Description: as §2, §4

PIV1069 = biological target: T31, PIV1069 (PIV1); experiment: BLI, 56C stress
T31 construct: F113G, F114S, A466L, S473L, G134A
Description: as §2, §4

PIV1070 [8] = biological target: T29, PIV1070; experiment: BLI, 56C stress
Description: as §2, §4

B1: hMPV-2 mAb (antibody, V domains shown)
VH: QVQLQQSGAEVKKPGASVKVSCKASGYTFTSYGISWVRQAPGQGLEWMGWISGYNGNTNYAQTFQGTFTMTTDTSTSTAYMELRRLRSGDTAVYYCARDRYYASGSYNGMDVWGQGTTVTVSS
VL: QSALTQPPSASGAPGQRVTVSCSGSSSNVGSSSVYWYQQLPGTAPKLLIYRNNQRPSGVPDRFSGSKSGTSASLAISGLRSEDEADYYCAAWDDSLSGWVFGGGTKLTVLG
notes: human IgG1
IC50, virus neutralization assay [1]: 20 mg/L | IC50, virus neutralization assay [2]: 23.2 mg/L | EC50 [3]: 0.097 nM | Response Shift (hMPV066): 0.738 nm | Response Shift (hMPV046): 0.472 nm | Response Shift (hMPV052): 0.634 nm | Response Shift (hMPV060): 0.707 nm | Response Shift (hMPV062): 0.46 nm | Response Shift (hMPV053): 0.566 nm | Response Shift (hMPV075): 0.653 nm | Response Shift (hMPV058): 0.494 nm | Response Shift (hMPV071): 0.694 nm | Response Shift (hMPV067): 0.654 nm | Response Shift (hMPV045): 0.124 nm | Response Shift (hMPV054): 0.467 nm | Response Shift (hMPV068): 0.441 nm | Response Shift (hMPV044): 0.737 nm | Response Shift (hMPV049): 0.549 nm | Response Shift (hMPV048): 0.439 nm | Response Shift (hMPV077): 0.635 nm | Response Shift (hMPV061): 0.561 nm | Response Shift (hMPV047): -0.039 nm | Response Shift (hMPV A F WT Control): 0.284 nm | Response Shift (hMPV043): 0.567 nm | Response Shift (hMPV059): 0.455 nm | Response Shift (hMPV055): 0.194 nm | Response Shift (hMPV063): 0.685 nm | Response Shift (hMPV050): 0.142 nm | Response Shift (hMPV069): 0.465 nm

B2: PIV1-8 mAb (antibody, V domains shown)
VH: QVQLVQSGAEVKKPGSSVKVSCEASGGTFSNYVISWVRQAPGQGLEWMGGIIPVFATAKYAQKFQGRVTIIADQSTNTAYLELSSLRSDDTAVYFCASVDSGGTWWDAFAIWGQGTMVTVSS
VL: QAVVTQPRSVSGSPGQAVTISCTGTSSDVGGYNYVSWYQHHPGKAPKLIIYDVTKRPSGVPDRFSGSKSGNTASLTISGLQTEYEADYYCCSYAGSYTLVFGGGTKLTVLG
notes: human IgG1; also called hPIV1-8 mAb; hPIV1-8
Response Shift (PIV1054): 0.826 nm | IC50, virus neutralization assay (F protein of hPIV1 virus): 0.005 mg/L | Response Shift [4]: 0.717 nm | Response Shift (PIV1070 [5]): 0.84 nm | EC50 [6]: 0.103 nM | Response Shift [7]: 0.458 nm | Response Shift (PIV1069): 0.819 nm | Response Shift (PIV1070 [8]): 0.859 nm
